In assay [1] the target is truncated zymogen of plasmepsin I (pro-tPMI) (P. falciparum). Kind of assay: SAXS.
The target of assay [2] is truncated zymogen of histo-aspartic protease (pro-tHAP) (P. falciparum). Kind of assay: crystal structure.
In assay [3] the target is truncated zymogen of plasmepsin II, wild type (pro-tPMII) (P. falciparum). Kind of assay: SEC. (In general: In gel filtration, larger molecules generally elute earlier.)

The stoichiometry N is the number of molecules, sites or subunits per partner or assembly. For the substance “truncated zymogen of plasmepsin I (pro-tPMI) (enzyme)”, in assay [1], the stoichiometry N is 2. In assay [2], “truncated zymogen of histo-aspartic protease (pro-tHAP) (enzyme)” gave a stoichiometry N of 2.

In the case of “truncated zymogen of plasmepsin II, wild type (pro-tPMII) (enzyme)”, the stoichiometry N in assay [3] was 2.

Values taken from publication PMC9116133.
